Data on 6 molecules can be found in CN113045659A (NOVOPROTEIN SCIENT INC, dated 2021).

One test deals with T1, SK-OV-3细胞上的CD73 (human, UniProt P21589 27-549).
T1 construct: whole, on cells; Endogenous CD73 of the human CD73-positive cell line SK-OV-3; also called 人CD73阳性细胞; SK-OV-3细胞表面的CD73
T1 sequence (looked up): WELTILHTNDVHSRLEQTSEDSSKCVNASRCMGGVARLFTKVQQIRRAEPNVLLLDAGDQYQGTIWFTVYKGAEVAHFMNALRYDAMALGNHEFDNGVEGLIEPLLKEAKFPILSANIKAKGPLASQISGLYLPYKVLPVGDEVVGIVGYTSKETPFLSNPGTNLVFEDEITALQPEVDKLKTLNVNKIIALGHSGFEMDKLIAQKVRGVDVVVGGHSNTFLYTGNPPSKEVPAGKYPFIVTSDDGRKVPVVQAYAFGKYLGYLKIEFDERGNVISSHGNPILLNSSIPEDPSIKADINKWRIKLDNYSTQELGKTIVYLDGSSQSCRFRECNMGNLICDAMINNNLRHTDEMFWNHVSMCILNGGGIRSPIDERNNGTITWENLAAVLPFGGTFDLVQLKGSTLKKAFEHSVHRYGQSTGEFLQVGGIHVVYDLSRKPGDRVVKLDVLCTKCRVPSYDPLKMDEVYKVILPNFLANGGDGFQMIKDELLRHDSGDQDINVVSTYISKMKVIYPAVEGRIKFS
Description: flow cytometry on SK-OV-3 cells, Anti-hFC-APC.

For the next test, the target named is T2, 重组人CD73蛋白 (human, UniProt P21589 27-547, limits assumed).
T2 construct: Coated at 3 ug/ml in the ELISA and used at 5 ug/ml in the enzyme assay; also called rhCD73
T2 sequence (looked up): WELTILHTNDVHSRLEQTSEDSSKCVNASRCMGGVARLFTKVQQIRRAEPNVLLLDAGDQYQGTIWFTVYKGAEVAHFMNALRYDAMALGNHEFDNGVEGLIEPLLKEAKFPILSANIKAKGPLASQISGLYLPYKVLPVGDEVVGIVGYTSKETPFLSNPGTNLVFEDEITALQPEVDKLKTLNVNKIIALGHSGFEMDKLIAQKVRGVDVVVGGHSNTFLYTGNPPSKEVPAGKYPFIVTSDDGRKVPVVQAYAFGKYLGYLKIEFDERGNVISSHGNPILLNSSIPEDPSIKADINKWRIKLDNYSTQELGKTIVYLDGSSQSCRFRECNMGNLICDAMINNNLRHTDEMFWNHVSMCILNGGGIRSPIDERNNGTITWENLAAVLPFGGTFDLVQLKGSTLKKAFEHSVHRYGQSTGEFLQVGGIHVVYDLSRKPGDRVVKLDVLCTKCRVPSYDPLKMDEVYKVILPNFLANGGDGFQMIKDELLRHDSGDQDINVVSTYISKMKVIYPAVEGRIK
Description: ELISA, recombinant human CD73 coated at 3 ug/ml. For orientation: In an ELISA, binding on a coated surface is turned into a signal by an enzyme label.

B1: 137-4 (antibody, IgG1, V domains shown)
VH: QVQLVQSGAEVKKPGSSVKVSCKASGYSFTGYYIHWVRQAPGQGLEWMGRINPYNGATTYNQNFKDRVTITVDKSTSTAYMELSSLRSEDTAVYYCARFHYGAVDYWGQGTLVTVSS
VL: DIQMTQSPSSLSASVGDRVTITCKASQDINTYLTWYQQKPGKAPKTLIYRANILVDGVPSRFSGSGSGTDFTLTISSLQPEDFATYYCLQYEEFPLTFGGGTKVEIKR
notes: also called 人源化CD73抗体; CQ137人源化抗体; not shown: kappa constant region
Regarding B1, the binding result in the test with SK-OV-3细胞上的CD73 and in the test with 重组人CD73蛋白 was “binds” in each case.

B2: 137-7 (antibody, IgG1, V domains shown)
VH: QVQLVQSGAEVKKPGSSVKVSCKASGYSFTGYYIHWVRQAPGQGLEWMGRINPYNGATTYNQNFKDRVTITVDKSTSTAYMELSSLRSEDTAVYYCARFHYGAPNYWGQGTLVTVSS
VL: DIQMTQSPSSLSASVGDRVTITCKASQDINTYLTWYQQKPGKAPKTLIYRANILVDGVPSRFSGSGSGTDFTLTISSLQPEDFATYYCLQYDDFPLTFGGGTKVEIKR
notes: as for B1
As for B2, the binding result with SK-OV-3细胞上的CD73 and in the test with 重组人CD73蛋白 was “binds” in each case.

B3: 137-8 (antibody, IgG1, V domains shown)
VH: QVQLVQSGAEVKKPGSSVKVSCKASGYSFTGYYIHWVRQAPGQGLEWMGRINPYNGATTYNQNFKDRVTITVDKSTSTAYMELSSLRSEDTAVYYCARFHYGAPDFWGQGTLVTVSS
VL: DIQMTQSPSSLSASVGDRVTITCKASQDINTYLTWYQQKPGKAPKTLIYRANILVDGVPSRFSGSGSGTDFTLTISSLQPEDFATYYCLQYDQFPLTFGGGTKVEIKR
notes: as for B1
For the molecule B3, the binding result with SK-OV-3细胞上的CD73 and in the test with 重组人CD73蛋白 was “binds” throughout.

B4: 137-9 (antibody, IgG1, V domains shown)
VH: QVQLVQSGAEVKKPGSSVKVSCKASGYSFTGYYIHWVRQAPGQGLEWMGRINPYNGATTYNQNFKDRVTITVDKSTSTAYMELSSLRSEDTAVYYCARFHYGAPDLWGQGTLVTVSS
VL: DIQMTQSPSSLSASVGDRVTITCKASQDINTYLTWYQQKPGKAPKTLIYRANILVDGVPSRFSGSGSGTDFTLTISSLQPEDFATYYCLQYDAFPLTFGGGTKVEIKR
notes: as for B1
With B4, the binding result in the test with SK-OV-3细胞上的CD73 and with 重组人CD73蛋白 was “binds” in each case.

B5: 137-5 (antibody, IgG1, V domains shown)
VH: QVQLVQSGAEVKKPGSSVKVSCKASGYSFTGYYIHWVRQAPGQGLEWMGRINPYNGATTYNQNFKDRVTITVDKSTSTAYMELSSLRSEDTAVYYCARFHYGAADYWGQGTLVTVSS
VL: DIQMTQSPSSLSASVGDRVTITCKASQDINTYLTWYQQKPGKAPKTLIYRANILVDGVPSRFSGSGSGTDFTLTISSLQPEDFATYYCLQYNEFPLTFGGGTKVEIKR
notes: as for B1
Take B5: the binding result in the test with SK-OV-3细胞上的CD73 and in the test with 重组人CD73蛋白 was “binds” each time.

B6: 137-6 (antibody, IgG1, V domains shown)
VH: QVQLVQSGAEVKKPGSSVKVSCKASGYSFTGYYIHWVRQAPGQGLEWMGRINPYNGATTYNQNFKDRVTITVDKSTSTAYMELSSLRSEDTAVYYCARFHYGAPEYWGQGTLVTVSS
VL: DIQMTQSPSSLSASVGDRVTITCKASQDINTYLTWYQQKPGKAPKTLIYRANILVDGVPSRFSGSGSGTDFTLTISSLQPEDFATYYCLQYAEFPLTFGGGTKVEIKR
notes: as for B1
Turning to B6, the binding result with SK-OV-3细胞上的CD73 and with 重组人CD73蛋白 was “binds” in each case.
